Results reported in FireProtDB (doi:10.1093/protein/gzi067).

B1: Cytochrome b5, P00171 (parent)
chain: MAEESSKAVKYYTLEEIQKHNNSKSTWLILHYKVYDLTKFLEEHPGGEEVLREQAGGDATENFEDVGHSTDARELSKTFIIGELHPDDRSKITKPSESIITTIDSNPSWWTNWLIPAISALFVALIYHLYTSEN

Variants of: B1
Conditions: Bos taurus, pH 7, 25 °C, CD, MOPS 30 mM, reversible: yes (partial), structure 1CYO, whole UniProt chain shown

Row | Variant | ddG of mutation (higher = less stable) (GdnHCl) [kcal/mol] | denaturant midpoint (higher = more stable) (GdnHCl) [M] | unfolding free energy (GdnHCl) [kcal/mol] | denaturant midpoint (higher = more stable) (GdnSCN) [M]
1 | MAEESSKAVKYYTLEEIQKHNNSKSTWLILHYKVYDITKFLEEHPGGEEVLREQAGGDATENFEDVGHSTDARELLKTFIIGELHPDDRSKITKPSESIITTIDSNPSWWTNWLIPAISALFVALIYHLYTSEN [S76L L37I] | -0.5 | 1.9 | 3.5 | 1.8
2 | MAEESSKAVKYYTLEEIQKHNNSKSTWLILHYKVYDLTKFLEEHPGGEEVLREQAGGDATENFEDVGHSTDARELLKTFIIGELHPDDRSKITKPSESIITTIDSNPSWWTNWLIPAISALFVALIYHLYTSEN [S76L] | -0.8 | 2.3 | 3.8 | 1.59
